According to doi:10.1101/2022.04.26.489556:

Molecular target: T1, Rv1019 (TetR family regulator) (UniProt P96381 1-197)
T1 sequence: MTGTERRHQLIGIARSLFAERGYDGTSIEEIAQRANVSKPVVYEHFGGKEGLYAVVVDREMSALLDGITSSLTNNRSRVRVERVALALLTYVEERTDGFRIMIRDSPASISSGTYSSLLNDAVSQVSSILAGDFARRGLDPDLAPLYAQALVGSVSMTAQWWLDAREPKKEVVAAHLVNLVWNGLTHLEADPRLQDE
Test: EMSA

B1: MSMEG_1885 palindrome (MS_1886 PAL oligos) (dsDNA)
DNA 1: TAAGTTACGGTACCGTAGGTTG
DNA 2: CAACCTACGGTACCGTAACTTA
**Q.** Does B1 bind?
**A.** Result: binds
